Experimental data as given in patent publication US20050196403A1 (published 2005).
Several values for one entry are separate records, joined by “and”; a condition that tells them apart may be missing. Equal values may be shown once. Non-standard residues stand in square brackets, D forms with d. No end group written: not given here. Abu = CC[C@H](N)C(=O)O

Experiments:
[1] = biological target: HLA-B*0702 (Human); assay: competition vs 125I probe, purified HLA
[2] = biological target: HLA-B*3501 (Human); assay: competition vs 125I probe, purified HLA
[3] = biological target: HLA-B*5301 (Human); assay: competition vs 125I probe, purified HLA
[4] = biological target: HLA-B*5401 (Human); assay: competition vs 125I probe, purified HLA
[5] = biological target: HLA-B*5101 (Human); assay: competition vs 125I probe, purified HLA
[6] = biological target: HLA-A*0203 (Human); assay: competition vs 125I probe, purified HLA
[7] = biological target: HLA-A*0206 (Human); assay: competition vs 125I probe, purified HLA
[8] = biological target: HLA-B*0702 (Human)
[9] = biological target: HLA-A*0101 (human); assay: competition with 125I probe peptide, purified HLA class I
[10] = biological target: HLA-A*0301 (human); assay: as above
[11] = biological target: HLA-A*1101 (human); assay: as above
[12] = biological target: HLA-A*6801 (human); assay: as above
[13] = biological target: HLA-A*3101 (human); assay: as above
[14] = biological target: HLA-A*0201 (human); assay: as above
[15] = biological target: HLA-A*0206 (human); assay: as above

B1: 48.0055 FPALNKMF (p53.127.F1) (peptide)
peptide: FPALNKMF
B1 was tested, and the IC50 [1] was 0.025 nM, the IC50 [2] was 3000 nM and the IC50 [3] was 6200 nM.

B2: 48.0234 FPALNKMFCQL (p53.127.F1) (peptide)
peptide: FPALNKMFCQL
In the case of B2, the IC50 [1] is reported as 0.052 nM, the IC50 [4] is reported as 500 nM and the IC50 [5] is reported as 5500 nM.

B3: 48.0123 FPGTRVRAI (p53.152.F1) (peptide)
peptide: FPGTRVRAI
B3 gave an IC50 [1] of 1.1 nM and an IC50 [5] of 663 nM.

B4: 48.0196 FPPGSTKRAL (p53) (peptide)
peptide: FPPGSTKRAL
B4 gave an IC50 [1] of 0.79 nM and an IC50 [5] of 6110 nM.

B5: 48.0127 FPQPKKKPI (p53) (peptide)
peptide: FPQPKKKPI
B5 showed an IC50 [1] of 0.61 nM.

B6: 48.0128 FPQPKKKPL (p53) (peptide)
peptide: FPQPKKKPL
For B6, the IC50 [1] was 2.3 nM.

B7: p53.193 HLIRVEGNLRV (peptide)
peptide: HLIRVEGNLRV
B7 gave an IC50 [6] of 83 nM.

B8: p53.229 CTTIHYNYM (peptide)
peptide: CTTIHYNYM
B8 gave an IC50 [7] of 561 nM.

B9: p53 peptide KPLDGEYFTL (position 321, 10 amino acids) (peptide)
peptide: KPLDGEYFTL
With B9 the “binding affinity ratio (IC50 of standard peptide / IC50 of test peptide)” value [8] was 0.0055 ratio.

B10: p53 peptide LPENNVLSPL (position 26, 10 amino acids) (peptide)
peptide: LPENNVLSPL
With B10 the “binding affinity ratio (IC50 of standard peptide / IC50 of test peptide)” value [8] was 0.007 ratio.

B11: p53 peptide LPSQAMDDL (position 35, 9 amino acids) (peptide)
peptide: LPSQAMDDL
For B11, the “binding affinity ratio (IC50 of standard peptide / IC50 of test peptide)” value [8] was 0.0038 ratio.

B12: p53 peptide MPEAAPPV (position 66, 8 amino acids) (peptide)
peptide: MPEAAPPV
With B12 the “binding affinity ratio (IC50 of standard peptide / IC50 of test peptide)” value [8] was 0.0028 ratio.

B13: p53 peptide SPLPSQAM (position 33, 8 amino acids) (peptide)
peptide: SPLPSQAM
With B13 the “binding affinity ratio (IC50 of standard peptide / IC50 of test peptide)” value [8] was 0.0044 ratio.

B14: p53 peptide TPAAPAPA (position 81, 8 amino acids) (peptide)
peptide: TPAAPAPA
For B14, the “binding affinity ratio (IC50 of standard peptide / IC50 of test peptide)” value [8] was 0.0041 ratio.

B15: 57.0126 GTDKSVTCTY p53.117.D3 (peptide)
peptide: GTDKSVTCTY
B15 gave an IC50 [9] of 42.4 nM.

B16: 1371.17 BVYSPALNR p53.124.B1V2R9 (peptide)
peptide: BVYSPALNR
modifications: B at position 1 is alpha-amino butyric acid (in place of cysteine)
With B16 the IC50 [10] was 25 nM, the IC50 [11] was 8.3 nM and the IC50 [12] was 14.8 nM.

B17: 1371.18 KVFBQLAK p53.132.V2B4 (peptide)
peptide: KVF[Abu]QLAK
With B17 the IC50 [10] was 846 nM and the IC50 [13] was 7500 nM.

B18: 1371.27 SVBMGGMNRR p53.240.V2B3 (peptide)
peptide: SV[Abu]MGGMNRR
Binder B18 has an IC50 [10] of 1000 nM, an IC50 [11] of 25 nM and an IC50 [13] of 621 nM. The IC50 [12] was 11.4 nM.

B19: 1371.31 RVBABPGRDRK p53.273.B3B5K11 (peptide)
peptide: RV[Abu]A[Abu]PGRDRK
Work on B19 yielded an IC50 [11] of 200 nM and an IC50 [12] of 2500 nM.

B20: LLGRDSFEV mp53.261 (peptide)
peptide: LLGRDSFEV
With B20 the IC50 [14] was 41.7 nM and 27.8 nM.

B21: 1329.04 CTTIHYNYM p53.229 (peptide)
peptide: CTTIHYNYM
Binder B21 has an IC50 [15] of 561 nM.
